Assay results as given in US5674842A, “Growth inhibitory peptide” (Health Research, Incorporated, priority 1994, dated 1997).

Assays:
[1] = tested on: estrogen-stimulated growth of mouse uterus; conditions: full-length transformed AFP molecule, see references cited; cited from earlier work
[2] = Retention of inhibitory activity on storage; format: physicochemical; conditions: transformed human AFP preparation

B1: full-length transformed AFP molecule: full-length alpha-fetoprotein transformed by incubation with estradiol to an inhibitor of estrogen-stimulated growth (protein, UniProt P02771 1-609, looked up)
chain: MKWVESIFLIFLLNFTESRTLHRNEYGIASILDSYQCTAEISLADLATIFFAQFVQEATYKEVSKMVKDALTAIEKPTGDEQSSGCLENQLPAFLEELCHEKEILEKYGHSDCCSQSEEGRHNCFLAHKKPTPASIPLFQVPEPVTSCEAYEEDRETFMNKFIYEIARRHPFLYAPTILLWAARYDKIIPSCCKAENAVECFQTKAATVTKELRESSLLNQHACAVMKNFGTRTFQAITVTKLSQKFTKVNFTEIQKLVLDVAHVHEHCCRGDVLDCLQDGEKIMSYICSQQDTLSNKITECCKLTTLERGQCIIHAENDEKPEGLSPNLNRFLGDRDFNQFSSGEKNIFLASFVHEYSRRHPQLAVSVILRVAKGYQELLEKCFQTENPLECQDKGEEELQKYIQESQALAKRSCGLFQKLGEYYLQNAFLVAYTKKAPQLTSSELMAITRKMAATAATCCQLSEDKLLACGEGAADIIIGHLCIRHEMTPVNPGVGQCCTSSYANRRPCFSSLVVDETYVPPAFSDDKFIFHKDLCQAQGVALQTMKQEFLINLVKQKPQITEEQLEAVIADFSGLLEKCCQGQEQEVCFAEEGQKLISKTRAALGV
modifications: full-length estradiol-transformed
In the case of B1, the “inhibition of estrogen-stimulated growth” value [1] is given as 20-40% and the “time activity is retained” value [2] is given as “one”.
